One block for each binder: values may come before it.
Biological target: T1, 人肌红蛋白(Human Myoglobin) (human, UniProt P02144 2-154)
T1 construct: mature; Native protein, bought; also called 人肌红蛋白标准抗原; ABCam ab77876
T1 sequence (looked up): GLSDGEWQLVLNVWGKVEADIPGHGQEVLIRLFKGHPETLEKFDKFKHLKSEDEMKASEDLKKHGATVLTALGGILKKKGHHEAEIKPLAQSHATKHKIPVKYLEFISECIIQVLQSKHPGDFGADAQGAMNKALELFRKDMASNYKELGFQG
Assay: indirect ELISA, human myoglobin coated at 300 ng/ml, purified antibody in two-fold dilutions from 1:10 000

效价 (titer, antibody dilution at OD450 about 1.0) (dilution fold): > 1e+06
B1: 鼠源抗人肌红蛋白单克隆抗体3M4 (antibody, V domains shown)
VH: VKLQESGGGLVQPGGSMKLSCVASGFNFSSYWMSWVRQSPEKGLEWVAEIRLKSDNYATHYAESVKGKFTISRDDSKSSLYLQMNNLRTEDTGIYFCADHGLTGHWGQGTTVTVSS
VL: LTQSPAIMSASPGEKVTLTCSASSSVSSSYLYWYQQKPGSSPKIWIYSTSNLAFGVPDRFSGSGSGTSYSLTISTMEAEDAASYFCHQWSSYPFTFGAGTKLE

效价 (titer, antibody dilution at OD450 about 1.0): ≥ 1e+06 dilution fold
B2: 鼠源抗人肌红蛋白单克隆抗体5M7 (antibody)
chain 1: VQLQESGAELARPGASVKLSCKASGYTFTIYWMQWVKQRPGQGLEWIGSIYPGDGDTRYNQKFKGKATFTADKSSSTAYMQLISLASEDSAVYYCATGLYYGYDEGHWYFDVWGQGTTV
chain 2: DIVMSQSPASLAVSLGQRATISYRASKSVSTSGYSYMHWNQQKPGQPPRLLIYLVSNLESGVPARFSGSGSGTDFTLNIHPVEEEDAATYYCQHIR

From CN104862283A (UNIV JINAN, dated 2015)
